Source: patent US20220002407A1

Biological target: CD19 on CD19-positive human tumor cells (Raji, Raji-Luc, NALM6, Reh) (human) (UniProt P15391)
Test: cell-based or functional assay

Chain of CD19 on CD19-positive human tumor cells (Raji, Raji-Luc, NALM6, Reh) (human) (P15391 20-556): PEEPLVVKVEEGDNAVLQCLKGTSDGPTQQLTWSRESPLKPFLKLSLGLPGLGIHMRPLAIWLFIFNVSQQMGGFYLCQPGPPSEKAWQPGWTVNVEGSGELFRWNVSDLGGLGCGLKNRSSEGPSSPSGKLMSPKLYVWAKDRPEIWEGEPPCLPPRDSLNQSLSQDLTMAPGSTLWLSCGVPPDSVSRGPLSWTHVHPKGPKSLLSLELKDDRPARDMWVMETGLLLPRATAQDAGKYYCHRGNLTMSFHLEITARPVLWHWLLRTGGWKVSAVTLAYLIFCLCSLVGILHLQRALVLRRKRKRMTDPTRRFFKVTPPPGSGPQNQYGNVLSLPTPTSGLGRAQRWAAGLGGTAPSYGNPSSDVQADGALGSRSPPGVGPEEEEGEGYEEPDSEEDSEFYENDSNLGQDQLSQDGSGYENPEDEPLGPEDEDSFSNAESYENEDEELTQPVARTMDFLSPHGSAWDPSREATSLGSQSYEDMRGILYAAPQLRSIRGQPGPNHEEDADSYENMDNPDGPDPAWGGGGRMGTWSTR

For “bispecific antibody blinatumomab (Blincyto, Amgen)”, which EC50 of activation of NFAT-RE luciferase reporter Jurkat T cells in the presence of Raji target cells is on record?
The EC50 of activation of NFAT-RE luciferase reporter Jurkat T cells in the presence of Raji target cells was 2.71 nM.

And the EC50 to mediate CIK to kill different tumor cells (NALM6)?
Its EC50 to mediate CIK to kill different tumor cells (NALM6) is 0.0773 nM.

What about the EC50 to mediate CIK to kill different tumor cells (Reh) of the same substance?
The EC50 to mediate CIK to kill different tumor cells (Reh) was 0.0119 nM.

And the EC50 to mediate CIK to kill tumor cells (Raji-LUC)?
The EC50 to mediate CIK to kill tumor cells (Raji-LUC) was 0.000595 nM.

What about the EC50 to mediate CIK to kill tumor cells (Raji-LUC, second row without label) of the same substance?
Its EC50 to mediate CIK to kill tumor cells (Raji-LUC, second row without label) is 0.00565 nM.

And the EC50 to mediate PBMCs to kill tumor cells (Raji-LUC)?
Its EC50 to mediate PBMCs to kill tumor cells (Raji-LUC) is 0.00545 nM.

And the EC50 to mediate PBMCs to kill tumor cells (Raji-LUC, second row without label)?
Its EC50 to mediate PBMCs to kill tumor cells (Raji-LUC, second row without label) is 0.0212 nM.

What about the EC50 to mediate PBMCs to kill tumor cells (Raji-LUC, third row without label) of the same substance?
The EC50 to mediate PBMCs to kill tumor cells (Raji-LUC, third row without label) was 0.0226 nM.
